Results taken from FireProtDB (doi:10.1021/acs.biochem.7b00833).
Where “and” joins values, the source holds several entries; their conditions need not be identical. Equal entries are not always repeated.

B1: SCO1 protein homolog, P54178 (parent)
chain: MKVIKGLTAGLIFLFLCACGGQQIKDPLNYEVEPFTFQNQDGKNVSLESLKGEVWLADFIFTNCETICPPMTAHMTDLQKKLKAENIDVRIISFSVDPENDKPKQLKKFAANYPLSFDNWDFLTGYSQSEIEEFALKSFKAIVKKPEGEDQVIHQSSFYLVGPDGKVLKDYNGVENTPYDDIISDVKSASTLK

Variants of: B1
Settings: Bacillus subtilis (strain 168), pH 7, CD, Sodium Phosphate Buffer, structure 1XZO, whole UniProt chain shown; for ddG of mutation (higher = less stable) / denaturant m value / unfolding free energy / denaturant midpoint (higher = more stable): 25 °C, Urea

Variant | ddG of mutation (higher = less stable) | denaturant m value | unfolding free energy | change of melting temperature, mutant - wild type (higher = more stable) (Thermal) | denaturant midpoint (higher = more stable) | Tm (Thermal)
F61W | -2.87 kcal/mol | 4.24 kcal/mol/M | 12.8 kcal/mol | 4.3 °C and -0.6 °C | – | –
W55A | 8.93 kcal/mol | 1.92 kcal/mol/M | 1 kcal/mol | – | 0.75 M | –
W55F F61W | 4.14 kcal/mol | 3.37 kcal/mol/M | 5.79 kcal/mol | -6.2 °C and -9.1 °C | 1.72 M | –
W120F | 2.89 kcal/mol | 3.93 kcal/mol/M | 7.04 kcal/mol | – | 1.77 M | 43.5 °C
W120F F61W | 4.18 kcal/mol | 3.17 kcal/mol/M | 5.75 kcal/mol | -7.1 °C and -11.5 °C | 1.81 M | –
W55A W120A F61W | – | – | – | -18 °C and -15.7 °C | – | –
W55A F61W | 8.03 kcal/mol | 3.74 kcal/mol/M | 1.9 kcal/mol | – | 0.8 M | –
